The record followed here is PMC4940141 (Nature, 2016).

Among the targets are RPB2 (human (endogenous in HeLa), UniProt P30876 1-1174); TBP (human, UniProt P20226 1-339); RPB1 (human (endogenous in HeLa), UniProt P24928 1-1970).
Common to all, as to assay: cryo-EM structure

TBP, sequence (P20226 whole entry): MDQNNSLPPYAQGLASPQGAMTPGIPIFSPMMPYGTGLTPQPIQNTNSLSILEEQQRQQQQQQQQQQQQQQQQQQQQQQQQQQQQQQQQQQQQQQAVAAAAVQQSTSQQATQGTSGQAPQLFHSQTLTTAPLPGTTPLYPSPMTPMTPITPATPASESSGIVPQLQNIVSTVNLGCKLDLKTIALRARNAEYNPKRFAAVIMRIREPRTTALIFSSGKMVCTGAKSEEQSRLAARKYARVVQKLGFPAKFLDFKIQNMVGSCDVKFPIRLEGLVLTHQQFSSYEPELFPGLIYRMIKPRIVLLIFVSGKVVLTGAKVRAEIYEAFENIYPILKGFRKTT

B1: RAP30 (natural protein, human)
chain: MAERGELDLTGAKQNTGVWLVKVPKYLSQQWAKASGRGEVGKLRIAKTQGRTEVSFTLNEDLANIHDIGGKPASVSAPREHPFVLQSVGGQTLTVFTESSSDKLSLEGIVVQRAECRPAASENYMRLKRLQIEESSKPVRLSQQLDKVVTTNYKPVANHQYNIEYERKKKEDGKRARADKQHVLDMLFSAFEKHQYYNLKDLVDITKQPVVYLKEILKEIGVQNVKGIHKNTWELKPEYRHYQGEEKSD
With B1, the binding result with RPB2 and with TBP was “binds” in each case.

B2: TFIIEα (natural protein)
chain: MADPDVLTEVPAALKRLAKYVIRGFYGIEHALALDILIRNSCVKEEDMLELLKFDRKQLRSVLNNLKGDKFIKCRMRVETAADGKTTRHNYYFINYRTLVNVVKYKLDHMRRRIETDERDSTNRASFKCPVCSSTFTDLEANQLFDPMTGTFRCTFCHTEVEEDESAMPKKDARTLLARFNEQIEPIYALLRETEDVNLAYEILEPEPTEIPALKQSKDHAATTAGAASLAGGHHREAWATKGPSYEDLYTQNVVINMDDQEDLHRASLEGKSAKERPIWLRESTVQGAYGSEDMKEGGIDMDAFQEREEGHAGPDDNEEVMRALLIHEKKTSSAMAGSVGAAAPVTAANGSDSESETSESDDDSPPRPAAVAVHKREEDEEEDDEFEEVADDPIVMVAGRPFSYSEVSQRPELVAQMTPEEKEAYIAMGQRMFEDLFE
Take B2: in the test with RPB1, the binding result is reported as “binds”.
